Earlier results on one substance are cited in paper PMC3145095.

Broadly, the Kd is the constant that tells how readily two partners part at equilibrium.

This series concerns the target CD8αα (Mus musculus) (UniProt P01731).
Sequence of UniProt P01731 (P01731 28-196): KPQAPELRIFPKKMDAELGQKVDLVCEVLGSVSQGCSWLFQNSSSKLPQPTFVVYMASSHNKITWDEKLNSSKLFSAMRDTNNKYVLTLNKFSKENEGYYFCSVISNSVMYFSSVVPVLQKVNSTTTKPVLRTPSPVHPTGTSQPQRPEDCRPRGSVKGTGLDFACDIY

On to “Thymus leukaemia antigen (TL) (from UniProt P14432)”, for which the Kd was 12 µM.
